Ends that are not written are not given here.
Assays:
[1] = 10 °C; cited from earlier work
[2] = cited from earlier work
[3] = test system: actin; conditions: literature statement, no reference printed at this sentence; cited from earlier work
[4] = test system: cofilin; conditions: cited from earlier work
[5] = target: T1, αTM1b_(1-19)Zip (1bNTD), unlabeled synthetic peptide (rat | yeast); assay: circular dichroism titration
T1 chain: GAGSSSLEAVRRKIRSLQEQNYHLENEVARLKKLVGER

9aCTD: residues 251-284 of rat striated α-tropomyosin encoded by exon 8 and exon 9a with GCG at the N-terminus (GCGKSIDDLEDELYAQKLKYKAISEELDHALNDMTSI; not fully specified; UniProt P04692 251-284, looked up, fragment)
helical content of 9aCTD [1]: greater than 75% | TM of unfolding of 9aCTD [2]: ~ 25 °C

Cofilin: actin filament binding and severing protein
affinity of cofilin for the actin filament [3]: high affinity

Tropomyosin
inhibition of cofilin binding and severing [4]: competitive inhibitor

GCGGSIDDLEEKVAHAKEENLSMHQMLHQTLLELNNM (also: disulfide cross-link between two chains through Cys2 (dimer)) [α-TM9d_(252-284) (9dCTD), disulfide cross-linked]
Kd [5]: < 500 nM | stoichiometry N [5]: 0.94 ± 0.03 molar ratio
